Experimental data reported in PMC5479570.
pKd: −log10 of the molar value.

These substances were tested against CD4-IgG2 (UniProt P01730) (assay: BLI).
“HIV-1 clade B YU2 gp120 extended core (Coree) (domain or fragment)” gave a pKd of 9.92, a koff of 5.9e-05 s⁻¹ and a kon of 474000 M⁻¹ s⁻¹.
Substance “HIV-1 clade B YU2 gp120 glycoprotein, ΔV1/V2 (from UniProt P35961 32-498) (natural protein)” has a pKd of 9.47, a koff of 5.4e-05 s⁻¹ and a kon of 178000 M⁻¹ s⁻¹.
Substance “HIV-1 clade B YU2 gp120 glycoprotein, ΔV3 (from UniProt P35961 32-498) (natural protein)” has a pKd of 9.04, a koff of 0.00015 s⁻¹ and a kon of 160000 M⁻¹ s⁻¹.
